These results are taken from patent US5254534A, “Adjuvant for cancer immunotherapy” (Green Cross Corporation, priority 1988, dated 1993).

Like-named read-outs stand apart in the source and are kept apart here.

The subject of series [1] is mouse marrow cells. Put plainly: Colony stimulating activity: colony formation of mouse marrow cells on soft agar. The series is classed as cell-based. The settings on record: for specific activity: purified glycoprotein/CSF of the examples. As for the experimental part:
In biological activity measurement, the colony formation of mouse marrow cells in vitro was used as an activity measurement parameter. […] Thereafter, cell aggregates consisting of 50 or more cells were counted as colonies under an invert microscope.
One colony formed is taken as one unit.
Thus, the CSF sample was admixed with 1 ml of McCoy's 5A medium containing 0.3% agar, 20% fetal calf serum (FCS) and 1×10^5 mouse marrow cells. […] Thereafter, cell aggregates consisting of 50 or more cells were judged as colonies and counted. The colony stimulating activity was expressed in units. One unit was defined as the quantity of CSF required for the formation of one colony. The specific activity was expressed in terms of the number of colonies (units) formed per milligram of the CSF protein. […] The colonies formed were stained with hematoxylin-eosin for morphological classification.

The next series deals with TNF activity. Put plainly: Induction of TNF activity by mixed culture of monocytes and PICIBANIL (OK-432) plus CSF; cytocidal activity against L929 cells (crystal violet). The series is classed as cell-based. Particulars: conclusions from Table 2. As for the experimental part:
(3) Incubation was performed at 37° C. for 72 hours in a 5% CO2 atmosphere.
(4) The supernatant was assayed for TNF activity at timed intervals. The TNF activity was determined by measuring the cytocidal activity against L929 cells in terms of the absorbance of crystal violet.

A further series is described as follows: Isoelectric point. The series is classed as physicochemical. Particulars: polyacrylamide gel isoelectric focusing and sucrose density gradient isoelectric focusing. An excerpt: The isoelectric point (pI) as determined by the polyacrylamide gel isoelectric focusing and sucrose density gradient isoelectric focusing techniques is 3.1-3.7.
A short description of series [2]: Thermal stability of the CSF (60°C, then colony stimulating activity). The series is classed as physicochemical. Particulars: 1 μg/ml, dilute buffer pH 7.0, 60°±0.5° C., 60 minutes. As for the experimental part:
The CSF was dissolved in a dilute buffer (pH 7.0) to a concentration of 1 μg/ml, and the solution was heated at 60°±0.5° C. for 60 minutes and then assayed for colony stimulating activity (to be mentioned later herein).

For series [3], the system named is mammalian monocyte-macrophage series cells. The settings on record: cited from earlier work.
For series [4] the following is noted: 60±0.5° C., 60 minutes; CSF (iv); cited from earlier work.
The conditions of series [5]: polyacrylamide gel isoelectric focusing and sucrose density gradient isoelectric focusing; CSF (iv); cited from earlier work.
Series [6] has as its system mouse marrow cells. Particulars: CSF (iv), typical production method; cited from earlier work.
For series [7] the following is noted: 1% (by weight) aqueous solution, 60° C. ±0.5° C., 30 minutes; cited from earlier work.
A further series concerns human marrow cells. The settings on record: cited from earlier work.
The conditions of series [8]: cited from earlier work.
The conditions of series [9]: 1% (by weight) aqueous solution; cited from earlier work.
Another series has as its system marrow cells. The settings on record: cited from earlier work.

B1: Example 4: human urine-derived CSF isolated and purified in the same manner as in Example 3 with TSKG-3,000SW and phenyl-5pw (protein, UniProt P09603 33-554, looked up)
Macrophage colony-stimulating …: EEVSEYCSHMIGSGHLQSLQRLIDSQMETSCQITFEFVDQEQLKDPVCYLKKAFLLVQDIMEDTMRFRDNTPNAIAIVQLQELSLRLKSCFTKDYEEHDKACVRTFYETPLQLLEKVKNVFNETKNLLDKDWNIFSKNCNNSFAECSSQDVVTKPDCNCLYPKAIPSSDPASVSPHQPLAPSMAPVAGLTWEDSEGTEGSSLLPGEQPLHTVDPGSAKQRPPRSTCQSFEPPETPVVKDSTIGGSPQPRPSVGAFNPGMEDILDSAMGTNWVPEEASGEASEIPVPQGTELSPSRPGGGSMQTEPARPSNFLSASSPLPASAKGQQPADVTGTALPRVGPVRPTGQDWNHTPQKTDHPSALLRDPPEPGSPRISSLRPQGLSNPSTLSAQPQLSRSHSSGSVLPLGELEGRRSTRDRRSPAEPEGGPASEGAARPLPRFNSVPLTDTGHERQSEGSFSPQLQESVFHLLVPSVILVLLAVGGLLFYRWRRRSHQEPQRADSPLEQPEGSPLTQDDRQVELPV
As to B1, the specific activity in the series with mouse marrow cells [1] is recorded as 1.5×10^8 units/mg protein. Further, in the series on TNF activity, the “TNF activity (in words)” value is listed as “does not cause TNF activity expression”.

B2: Example 3: purified CSF from human urine, homodimer of 70,000-90,000 daltons (protein, UniProt P09603 33-554, looked up)
Macrophage colony-stimulating …: EEVSEYCSHMIGSGHLQSLQRLIDSQMETSCQITFEFVDQEQLKDPVCYLKKAFLLVQDIMEDTMRFRDNTPNAIAIVQLQELSLRLKSCFTKDYEEHDKACVRTFYETPLQLLEKVKNVFNETKNLLDKDWNIFSKNCNNSFAECSSQDVVTKPDCNCLYPKAIPSSDPASVSPHQPLAPSMAPVAGLTWEDSEGTEGSSLLPGEQPLHTVDPGSAKQRPPRSTCQSFEPPETPVVKDSTIGGSPQPRPSVGAFNPGMEDILDSAMGTNWVPEEASGEASEIPVPQGTELSPSRPGGGSMQTEPARPSNFLSASSPLPASAKGQQPADVTGTALPRVGPVRPTGQDWNHTPQKTDHPSALLRDPPEPGSPRISSLRPQGLSNPSTLSAQPQLSRSHSSGSVLPLGELEGRRSTRDRRSPAEPEGGPASEGAARPLPRFNSVPLTDTGHERQSEGSFSPQLQESVFHLLVPSVILVLLAVGGLLFYRWRRRSHQEPQRADSPLEQPEGSPLTQDDRQVELPV
As to B2, the “isoelectric point (pI)” value in the series “Isoelectric point” is listed as 3.1-3.7. Moreover, the “Thermal stability (colony stimulating activity decrease)” value in series [2] is “Almost no activity decrease was observed”. Further, the “proportion of colonies that were monocyte-macrophage colonies” value with mouse marrow cells [1] (hematoxylin-eosin staining, 7 days at 37° C.) is recorded as “at least 95%”. Besides, in the series with mouse marrow cells [1], the specific activity is on record as 1.4×10^8 units/mg protein.

B3: CSF (iv): CSF disclosed in JP-A-63-250400; glycoprotein, homodimer composed of two identical subunits (protein, UniProt P09603 33-554, looked up)
Macrophage colony-stimulating …: EEVSEYCSHMIGSGHLQSLQRLIDSQMETSCQITFEFVDQEQLKDPVCYLKKAFLLVQDIMEDTMRFRDNTPNAIAIVQLQELSLRLKSCFTKDYEEHDKACVRTFYETPLQLLEKVKNVFNETKNLLDKDWNIFSKNCNNSFAECSSQDVVTKPDCNCLYPKAIPSSDPASVSPHQPLAPSMAPVAGLTWEDSEGTEGSSLLPGEQPLHTVDPGSAKQRPPRSTCQSFEPPETPVVKDSTIGGSPQPRPSVGAFNPGMEDILDSAMGTNWVPEEASGEASEIPVPQGTELSPSRPGGGSMQTEPARPSNFLSASSPLPASAKGQQPADVTGTALPRVGPVRPTGQDWNHTPQKTDHPSALLRDPPEPGSPRISSLRPQGLSNPSTLSAQPQLSRSHSSGSVLPLGELEGRRSTRDRRSPAEPEGGPASEGAARPLPRFNSVPLTDTGHERQSEGSFSPQLQESVFHLLVPSVILVLLAVGGLLFYRWRRRSHQEPQRADSPLEQPEGSPLTQDDRQVELPV
B3: the colony stimulating activity result in series [3] was “has colony stimulating activity”. Also, in series [4], the “Thermal stability (biological activity)” value was “biological activity is not lost”. Besides, in [5], the “isoelectric point (pI)” value is listed as 3.1-3.7. Further, the specific activity with mouse marrow cells [6] was 100,000-20,000,000 units/mg protein.

B4: CSF (i): CSF disclosed in U.S. Pat. No. 4,275,056; glycoprotein, molecular weight 75,000-90,000 by gel filtration (protein, UniProt P09603 33-554, looked up)
Macrophage colony-stimulating …: EEVSEYCSHMIGSGHLQSLQRLIDSQMETSCQITFEFVDQEQLKDPVCYLKKAFLLVQDIMEDTMRFRDNTPNAIAIVQLQELSLRLKSCFTKDYEEHDKACVRTFYETPLQLLEKVKNVFNETKNLLDKDWNIFSKNCNNSFAECSSQDVVTKPDCNCLYPKAIPSSDPASVSPHQPLAPSMAPVAGLTWEDSEGTEGSSLLPGEQPLHTVDPGSAKQRPPRSTCQSFEPPETPVVKDSTIGGSPQPRPSVGAFNPGMEDILDSAMGTNWVPEEASGEASEIPVPQGTELSPSRPGGGSMQTEPARPSNFLSASSPLPASAKGQQPADVTGTALPRVGPVRPTGQDWNHTPQKTDHPSALLRDPPEPGSPRISSLRPQGLSNPSTLSAQPQLSRSHSSGSVLPLGELEGRRSTRDRRSPAEPEGGPASEGAARPLPRFNSVPLTDTGHERQSEGSFSPQLQESVFHLLVPSVILVLLAVGGLLFYRWRRRSHQEPQRADSPLEQPEGSPLTQDDRQVELPV
Regarding B4, the Temperature stability entry in series [7] is “loses its ability to promote the differentiation and proliferation of human granulocytes”. The “differentiation and proliferation of granulocytes” value in the series on human marrow cells was “promotes the differentiation and proliferation of granulocytes”. The Solubility in chloroform result in series [8] (chloroform) is recorded as “slightly soluble”. The “Solubility in ethyl alcohol and acetone” value in series [8] (ethyl alcohol and acetone) is on record as “insoluble”. The Solubility in water result in series [8] (water) is “soluble”. Further, the pH in series [9] was 5.0-6.0.

B5: 2: heat-treated glycoprotein (CSF) from fresh urine collected from healthy humans (protein, UniProt P09603 33-554, looked up)
Macrophage colony-stimulating …: EEVSEYCSHMIGSGHLQSLQRLIDSQMETSCQITFEFVDQEQLKDPVCYLKKAFLLVQDIMEDTMRFRDNTPNAIAIVQLQELSLRLKSCFTKDYEEHDKACVRTFYETPLQLLEKVKNVFNETKNLLDKDWNIFSKNCNNSFAECSSQDVVTKPDCNCLYPKAIPSSDPASVSPHQPLAPSMAPVAGLTWEDSEGTEGSSLLPGEQPLHTVDPGSAKQRPPRSTCQSFEPPETPVVKDSTIGGSPQPRPSVGAFNPGMEDILDSAMGTNWVPEEASGEASEIPVPQGTELSPSRPGGGSMQTEPARPSNFLSASSPLPASAKGQQPADVTGTALPRVGPVRPTGQDWNHTPQKTDHPSALLRDPPEPGSPRISSLRPQGLSNPSTLSAQPQLSRSHSSGSVLPLGELEGRRSTRDRRSPAEPEGGPASEGAARPLPRFNSVPLTDTGHERQSEGSFSPQLQESVFHLLVPSVILVLLAVGGLLFYRWRRRSHQEPQRADSPLEQPEGSPLTQDDRQVELPV
modifications: heat-treated
notes: heat-treated glycoprotein (CSF) from fresh urine collected from healthy humans
Regarding B5, the specific activity with mouse marrow cells [1] is 1×10^7 units/mg protein.

B6: CSF (ii): CSF disclosed in JP-A-63-54398; glycoprotein, molecular weight about 70,000 by gel filtration (protein, UniProt P09603 33-554, looked up)
Macrophage colony-stimulating …: EEVSEYCSHMIGSGHLQSLQRLIDSQMETSCQITFEFVDQEQLKDPVCYLKKAFLLVQDIMEDTMRFRDNTPNAIAIVQLQELSLRLKSCFTKDYEEHDKACVRTFYETPLQLLEKVKNVFNETKNLLDKDWNIFSKNCNNSFAECSSQDVVTKPDCNCLYPKAIPSSDPASVSPHQPLAPSMAPVAGLTWEDSEGTEGSSLLPGEQPLHTVDPGSAKQRPPRSTCQSFEPPETPVVKDSTIGGSPQPRPSVGAFNPGMEDILDSAMGTNWVPEEASGEASEIPVPQGTELSPSRPGGGSMQTEPARPSNFLSASSPLPASAKGQQPADVTGTALPRVGPVRPTGQDWNHTPQKTDHPSALLRDPPEPGSPRISSLRPQGLSNPSTLSAQPQLSRSHSSGSVLPLGELEGRRSTRDRRSPAEPEGGPASEGAARPLPRFNSVPLTDTGHERQSEGSFSPQLQESVFHLLVPSVILVLLAVGGLLFYRWRRRSHQEPQRADSPLEQPEGSPLTQDDRQVELPV
Turning to B6, the “differentiation and proliferation of granulocytic series stem cells” value in the series on marrow cells was “promotes the differentiation and proliferation of granulocytic series stem cells”.
